In patent publication US20170342161A1 (APROGEN KIC, published 2017):
Blank lines part the entries; values can stand above or below the binder they belong to.

Tests used:
[1] = target: T1, carbonic anhydrase 12 (CA-XII) as expressed by human tumor cell lines (human, UniProt O43570 25-354); assay: flow cytometry, percent positive cells, NCI-H460 (lung)
T1 construct: also called CA12; CA12 antigen
Protocol: (§1) 27B6 and 4B4 monoclonal antibodies were analyzed for binding to various cell lines obtained from KCLB (Korean Cell Line Bank) and SNU (Seoul National University) using flow cytometry. Briefly, various cell lines were obtained from KCLB (Korean Cell Line Bank) and SNU (Seoul National University). At 37° C. under a 5% CO₂ atmosphere, L-132, SW-900, DU145, LNCap, MCF-7, Huh7, and Hs-578T were cultured in Dulbecco's MEM (GIBCO, Invitrogen) supplemented with 10% heat-inactivated fetal bovine serum (FBS; GIBCO, Invitrogen) and A549, NCI-H460, NCI-H417, DLD-1, HCT116, HT-29, SW-480, SW-620, LS174T, PC-3, SNU1, SNU638, SNU719, MKN1, MKN28, MKN45, MKN74, NCI-N87, SK-BR3, MDA-MB231, and MDA-MB453 were cultured in RPMI 1640 (GIBCO, Invitrogen) supplemented with 10% heat-inactivated FBS. […]
(§2) The cultured cancer cell lines were incubated with the 27B6 or the 4B4 monoclonal antibody of the present disclosure at 4° C. for 30 min, washed with PBS, and treated with FITC-conjugated goat anti-mouse IgG (DiNona Inc, Korea) at 4° C. for 15 min. […] Also, titers of the 27B6 and the 4B4 antibody were measured in various solid tumor cell lines.

[2] = target: T1, carbonic anhydrase 12 (CA-XII) as …; assay: flow cytometry (A549 cells, per paragraph 138)
Protocol: (§3) Three days post transfection, the supernatant was taken and added to A549 cells, which were then incubated at 4° C. for 30 min. Unbound antibodies were removed by centrifugation, together with 3 ml of PBS, at 1500 rpm for 3 min. The bound antibodies were detected by incubation with a 150-fold dilution of the secondary antibody goat anti-Mouse Ig-FITC (Dinona) at 4° C. for 15 min, followed by washing with 3 ml of PBS in the same manner. Thereafter, the antibody titer to A549 cells was measured by flow cytometry. Subsequently, a stable cell line was established. For this, the medium was exchanged with a PowerCHO medium (LONZA, Switzerland) supplemented with 30 nM MTX (Sigma, USA) and 200 μg/ml G418 (Invitrogen, USA), after which clone selection was started. Concentrations of MTX and G418 in the selection medium were increased with the repetition of clone selection rounds. Each round was set to be three weeks. The final round of clone selection was performed in a PowerCHO medium supplemented with 1000 nM of MTX and 400 μg/ml of G418. Thereafter, the final cell line was established as a single colony through limiting dilution.

[3] = target: T1, carbonic anhydrase 12 (CA-XII) as …; assay: flow cytometry, percent positive cells, HCT116 (colon)
Protocol: as §1, §2

[4] = target: T1, carbonic anhydrase 12 (CA-XII) as …; assay: flow cytometry (A549 cells, per paragraph 117)
Protocol: as §3, with “A549 cells” for “A549 cells,”, “measured using” for “measured by”, “nM” for “nM of”, “μg/ml” for “μg/ml of”

T1 sequence (O43570 25-354 limits assumed): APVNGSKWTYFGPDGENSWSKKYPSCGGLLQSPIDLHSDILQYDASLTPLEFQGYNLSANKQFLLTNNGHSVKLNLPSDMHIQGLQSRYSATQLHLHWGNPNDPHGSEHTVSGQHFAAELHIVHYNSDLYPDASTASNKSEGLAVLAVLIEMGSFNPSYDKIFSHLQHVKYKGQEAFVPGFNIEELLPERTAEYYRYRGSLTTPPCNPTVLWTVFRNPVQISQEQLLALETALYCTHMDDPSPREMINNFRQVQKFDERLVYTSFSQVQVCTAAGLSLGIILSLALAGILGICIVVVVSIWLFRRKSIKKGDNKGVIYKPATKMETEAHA

binding result [3]: binds
B3: 27B6 monoclonal antibody (antibody, mouse IgG1, V domains shown)
VH: QVQLQQSGPQLVWPGASVKISCNTSGYSFTNYWIHWVKQRPGQGLEWIGMIDPSDSETRLNQKFKDKTTLTVDRSSSTAYMQVSSSTSEDSAVYYCTRGIRGGYYAMDYWGQGTSVTVSS
VL: DIQMTQTTSSLSASLGDRVTISCRASQDISNYLNWYQQKPEGTVKLLIYYTSRLHSGVPSRFSGSGSGTDYSLTISNLEQEDIATYFCQQGDTLPRTFGEGTKLEIR
notes: also called 27B6 Ab; mouse 27B6 antibody

binding result [4]: binds
B4: 27B6 chimeric antibody (antibody, V domains shown)
VH: B3 VH
VL: B3 VL
notes: Chimeric antibody: mouse 27B6 variable regions, the rest 'substituted with the Fc of the human antibody'; Produced in CHO DG44 cells; also called chimeric 27B6; 27B6-HuIgFc

The remaining lines, values behind:

B1: 4B4 monoclonal antibody (antibody, V domains shown)
VH: EIQLQQSGPELVKPGASVKISCKASGYSYTDYNIYWVRQSQGKSLDWIGYIDPANGDTTYNQKFKGKATLTVDKSSSTAFMHLNSLTSDGSAVYFCARPIYYGVYWYFDVWGAGTTVTVS
VL: DIVMTQAAPSVPVTPGESVSISCRSSKSLLHSNGNTYLYWFLQRPGQSPQLLIYRMSNLASGVPDRFSGSGSGTAFTLRISRVEAEDVGVYYCMQHLEYPFTFGSGTKLEIK
notes: Mouse hybridoma antibody; also called 4B4 Ab; mouse 4B4 antibody
binding result [1]: binds

B2: 4B4 chimeric antibody (antibody, V domains shown)
VH: B1 VH
VL: B1 VL
notes: Chimeric antibody: mouse 4B4 variable regions, the rest 'substituted with the Fc of the human antibody'; Produced in CHO DG44 cells; also called chimeric 4B4; 4B4-HuIgFc
binding result [2]: binds
